Reference: patent publication US20160287682

System: Notch1, overexpressed in 293T cells

In the case of “Adamts1, V5 tagged, overexpressed in 293T cells”, the “S2 cleavage of Notch1” value was “Adamts1 blocks S2 cleavage of Notch1”.
